Laboratory results reported in patent US20220031841A1 (ABSCI, published 2022).

T1: Inorganic pyrophosphatase (PPA1) (human, UniProt Q15181 2-289)
T1 construct: The array carries full-length recombinant human proteins expressed in S. cerevisiae; also called Human PPA1
T1 sequence: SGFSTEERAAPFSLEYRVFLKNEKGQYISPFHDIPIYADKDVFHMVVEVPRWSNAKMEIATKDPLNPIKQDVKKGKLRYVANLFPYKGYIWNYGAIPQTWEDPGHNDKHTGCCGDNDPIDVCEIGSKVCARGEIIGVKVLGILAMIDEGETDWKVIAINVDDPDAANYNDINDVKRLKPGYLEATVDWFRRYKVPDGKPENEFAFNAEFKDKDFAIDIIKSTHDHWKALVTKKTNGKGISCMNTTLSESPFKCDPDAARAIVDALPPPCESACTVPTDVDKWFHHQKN

T2: Src homology 2 (SH2) domain containing inositol polyphosphate 5-phosphatase 1 (SHIP1) (human, UniProt Q92835 1-1189)
T2 construct: The array carries full-length recombinant human proteins expressed in S. cerevisiae, purified and printed on glass slides; also called INPP5D; INPP5D/SHIP1
T2 sequence: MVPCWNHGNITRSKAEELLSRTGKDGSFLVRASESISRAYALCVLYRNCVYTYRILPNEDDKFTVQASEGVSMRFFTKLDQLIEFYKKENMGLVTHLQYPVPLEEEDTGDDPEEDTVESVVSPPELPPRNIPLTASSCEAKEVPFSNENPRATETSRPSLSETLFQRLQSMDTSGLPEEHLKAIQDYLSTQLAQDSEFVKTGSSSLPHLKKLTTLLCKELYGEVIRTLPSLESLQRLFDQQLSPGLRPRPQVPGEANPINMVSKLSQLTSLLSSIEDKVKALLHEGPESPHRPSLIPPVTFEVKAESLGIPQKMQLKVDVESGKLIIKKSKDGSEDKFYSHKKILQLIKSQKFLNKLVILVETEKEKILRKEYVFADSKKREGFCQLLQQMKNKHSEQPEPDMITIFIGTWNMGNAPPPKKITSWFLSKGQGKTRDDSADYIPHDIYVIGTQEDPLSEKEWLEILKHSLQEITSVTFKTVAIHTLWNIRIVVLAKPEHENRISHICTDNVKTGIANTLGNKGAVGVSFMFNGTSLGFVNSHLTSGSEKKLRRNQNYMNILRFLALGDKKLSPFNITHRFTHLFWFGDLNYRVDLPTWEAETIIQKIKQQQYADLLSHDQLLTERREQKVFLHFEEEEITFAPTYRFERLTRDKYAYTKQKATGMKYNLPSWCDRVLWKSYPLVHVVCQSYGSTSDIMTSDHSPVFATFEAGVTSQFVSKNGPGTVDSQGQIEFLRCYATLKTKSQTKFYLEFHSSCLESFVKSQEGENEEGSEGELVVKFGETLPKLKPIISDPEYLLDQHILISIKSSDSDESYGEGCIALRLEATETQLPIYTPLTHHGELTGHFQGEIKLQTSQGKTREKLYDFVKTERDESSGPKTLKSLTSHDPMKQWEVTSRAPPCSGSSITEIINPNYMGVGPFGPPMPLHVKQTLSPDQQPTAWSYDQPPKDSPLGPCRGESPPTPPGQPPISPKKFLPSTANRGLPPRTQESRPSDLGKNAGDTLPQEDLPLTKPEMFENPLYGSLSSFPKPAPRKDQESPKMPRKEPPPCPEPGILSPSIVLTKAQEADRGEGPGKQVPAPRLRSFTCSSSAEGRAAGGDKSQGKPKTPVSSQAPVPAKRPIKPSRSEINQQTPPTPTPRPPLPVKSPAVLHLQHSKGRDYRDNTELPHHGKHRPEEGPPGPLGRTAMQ


Assays:
Experiment in all cases: HuProt protein array, F635 z-score
[1] = target: T3, Melanoma-associated antigen 3 (MAGE-A3) (human, UniProt P43357 1-314)
T3 construct: The array carries full-length recombinant human proteins expressed in S. cerevisiae; also called Human MAGE-A3
T3 sequence (P43357 whole entry): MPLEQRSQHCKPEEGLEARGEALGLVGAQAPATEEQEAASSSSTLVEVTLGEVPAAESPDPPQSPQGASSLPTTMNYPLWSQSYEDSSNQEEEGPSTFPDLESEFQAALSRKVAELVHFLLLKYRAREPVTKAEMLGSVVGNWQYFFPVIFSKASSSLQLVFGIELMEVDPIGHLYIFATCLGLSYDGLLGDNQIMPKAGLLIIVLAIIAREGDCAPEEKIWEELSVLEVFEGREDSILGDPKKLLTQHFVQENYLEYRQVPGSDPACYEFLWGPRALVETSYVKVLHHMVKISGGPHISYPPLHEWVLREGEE
Text: (§1) Large scale protein arrays are versatile and sensitive platforms for antibody specificity evaluation. They can be used for the evaluation of protein binding or affinity reagents that are widely employed in research and clinical applications. The microarray used in our target identification experiment provides the largest number of unique, full-length, individually purified human proteins on a single microscope slide. This allows thousands of interactions to be profiled in a high-throughput manner. The hill-length recombinant proteins are expressed in the yeast S. cerevisiae, purified, and printed on glass slides in duplicate along with a set of control proteins (GST, BSA, histones, IgG, etc.). Such microarray is not restricted to a particular type of surface coating, although the default is glass coated with ultra-thin nitrocellulose film for the non-covalent, yet irreversible, capture of active proteins to the surface. Fourteen Protein arrays were used for the antibody cross-reactivity assay of the samples. The antibodies were probed at […] on the arrays and incubated at room temperature for 1 hour. After probing, the arrays were washed according to the protocol and probed with Alexa-647-anti-human IgG […] specific secondary antibodies under conditions optimized for signal detection. The antibody-antigen binding score was calculated for each protein represented on the array and expressed as z-scores.
(§2) Antibody samples are probed on native HuProt arrays at 1 μg/ml and incubated at room temperature for 1 hour. After probing, the arrays are washed according to the standard protocols and probed with Alexa-647-anti-human IgG Fc gamma specific secondary antibodies under conditions optimized for signal detection.
(§3) Z score is the average Z score of the duplicate spots of a given protein (each protein is printed in duplicate on a HuProt™ array). The Z score of each spot on a given array is calculated according to the equation: […]

[2] = target: T1, Inorganic pyrophosphatase (PPA1)
Text: as §1, §2, §3

[3] = target: T2, Src homology 2 (SH2) domain containing …
Text: as §1, §2, §3

[4] = target: T4, Alpha-taxilin (TXLNA) also known as interleukin-14A (human, UniProt P40222 1-546)
T4 construct: The array carries full-length recombinant human proteins expressed in S. cerevisiae; also called IL-14A; TXLNA/IL-14A
T4 sequence (P40222 whole entry): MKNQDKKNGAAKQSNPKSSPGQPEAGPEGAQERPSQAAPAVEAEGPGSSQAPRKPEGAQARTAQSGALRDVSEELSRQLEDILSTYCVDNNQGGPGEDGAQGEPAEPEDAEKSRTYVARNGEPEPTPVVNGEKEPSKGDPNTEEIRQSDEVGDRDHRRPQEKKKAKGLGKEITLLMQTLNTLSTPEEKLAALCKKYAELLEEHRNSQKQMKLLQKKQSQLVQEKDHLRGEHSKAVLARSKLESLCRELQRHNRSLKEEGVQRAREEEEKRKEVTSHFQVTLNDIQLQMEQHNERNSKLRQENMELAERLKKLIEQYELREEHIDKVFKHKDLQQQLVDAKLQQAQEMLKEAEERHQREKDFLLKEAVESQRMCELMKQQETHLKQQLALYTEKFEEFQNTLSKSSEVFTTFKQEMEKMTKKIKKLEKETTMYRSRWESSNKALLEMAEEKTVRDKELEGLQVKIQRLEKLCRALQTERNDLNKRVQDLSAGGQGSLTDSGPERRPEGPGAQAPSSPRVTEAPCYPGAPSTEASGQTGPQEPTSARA
Text: as §1, §2, §3

Binder | binding result [1] | binding result [2] | binding result [3] | binding result [4]
TMEL1011 (antibody, V domains shown, It was detected with an anti-human IgG Fc gamma secondary antibody) VH: PVQLVQSGAEVKKPGSSVKVSCKASGGTFSSYSFNWVRQAPGQGLEWMARIIPILGLANYAQKFQGRVTLTADESTSTAYMELSSLRSEDTAIFYCAGMVLGQLGFDPWGQGTLVTVSS VL: QFMLTQPHSVSESPGRTVTISCTRSSGSIARNYVHWYQHRPGSSPTTVIYEDDQRPSGVPDRFSGSIDSSSNSASLTISGLKPEDEADYFCQSYDSNIWVFGGGTKLTVLG | no binding (tested: 1 µg/ml) | no binding (tested: 1 µg/ml) | no binding (tested: 1 µg/ml) | 
TMEL1002 (antibody, V domains shown) VH: not shown VL: ASALTQPASVSGSPGQSITISCTGTSSDVGDYNYVSWYQQHPGKAPKLMIYDVSNRPSGVSNRFSGSKSGNTASLTISGLQAEDEADYYCSSYTSSSTLVFGGGTKLTVLG | no binding (tested: 1 µg/ml) | no binding (tested: 1 µg/ml) | no binding (tested: 1 µg/ml) | no binding (tested: 1 µg/ml)
TMEL1004 (antibody, V domains shown) VH: QITLKESGPTLVKPTQTLTLTCTFSGFSLNTPGVGVGWIRQPPGKALEWLALIYWDDDKRYRPSLESRLTITKDTSKNHVVLTMTNMDPVDTATYFCAHKNLQYSEWFDPWGQGTLVIVSS VL: EMVLTQSPATLSLSPGERATLSCRASQSVSRNSLAWYQQRPGQTPRLLIYGASSRATGIPDRFSGSGSGTDFTLIISRLEPEDFAVYFCLQYDESPYTFGQGAKLEIKR | no binding (tested: 1 µg/ml) | no binding (tested: 1 µg/ml) | no binding (tested: 1 µg/ml) | no binding (tested: 1 µg/ml)
TMEL1013 (antibody, V domains shown) VH: PVQLVQSGAEVKKPGSSVKVSCKASGGTFSSYTINWVRQAPGQGLEWMGRIIPILGVANYAQKFQGRVTITADKSTSTAYMDLSSLRSEDTAVYYCAREWERAFDYWGQGTLVTVSS VL: not shown |  | no binding (tested: 1 µg/ml) | no binding (tested: 1 µg/ml) | no binding (tested: 1 µg/ml)
TMEL1010 (antibody, V domains shown, It was detected with an anti-human IgG Fc gamma secondary antibody) VH: QVQLVQSGAEVKKPGASVKVSCKASGYTFSSYGISWVRQAPGQGLEWMGWISAYNGNTNYAKKLQGRVTMTTDTSTSTAYLELRSLRSDDTAVYYCARGDGPFDYWGQGTLVTVSS VL: EIVMTQSPATLSVSPGERATLSCWASQSVSSSLAWYQQKPGQAPRLLMYGASNRATGIPARFSGSGSGTEFTLTISSLQSEDFAVYYCQQYNKWPPDTFGQGTKLEIKR | no binding (tested: 1 µg/ml) |  | no binding (tested: 1 µg/ml) | no binding (tested: 1 µg/ml)
TMEL1014 (antibody, V domains shown, It was detected with an anti-human IgG Fc gamma secondary antibody) VH: SVQLVESGGGVVQPGRSLRLSCAASGFTFSSYTMHWVRQAPGKGLEWVALISYDGSNKYYADSVKGRFTISRDNPKNTLYLQMNSLRVEDTAVYYCARDWTLGYWGQGTLVTVSS VL: VSSELTQDPAVSVALGQTVRITCQGDSLRNYYANWYQQKPGQAPILVIYDKNNRPSGIPDRFSGSSSGNTASLTITGAQAEDEADYYCNSRDSSGYHLVFGGGTKLTVLG |  | no binding (tested: 1 µg/ml) | no binding (tested: 1 µg/ml) | no binding (tested: 1 µg/ml)

Now from value to binder:

binding result [1] | binding result [2] | binding result [3] | binding result [4] | Binder
 | no binding (tested: 1 µg/ml) | no binding (tested: 1 µg/ml) | no binding (tested: 1 µg/ml) | TMEL1009 (antibody, V domains shown) VH: PVQLVQSGAEVKKPGSSVKVSCRASGGTFSNYGLNWVRQAPGQGLEWMGGIIPIFGSVNYAQKFQDRVTITADESTSTTYMDLNSLRSEDTAVYYCATERGHNMERAFDFWGQGTLVTVSS VL: not shown
no binding (tested: 1 µg/ml) | no binding (tested: 1 µg/ml) | no binding (tested: 1 µg/ml) | no binding (tested: 1 µg/ml) | TMEL1007 (antibody, V domains shown, It was detected with an anti-human IgG Fc gamma secondary antibody) VH: HVHLVQSGAEVKKPGSSVKVSCTASGGSFSSNPISWVRQAPGHGLQWMGGFVPLFGTANYAPSFHGRLTITADESTSTTYMELNSLRSEDSAVYYCARDFNWNFDFWGQGTLVTVSS VL: QSALTQPASVSGSPGQSITISCTGTSSDIGSYNLVSWYRQYPGKAPKLMIYEVNKRPSGVSNRFSGSKSGNTASLTISGLQAEDEADYYCCSYAGTTTFVIFGRGTKLTVLG
 | no binding (tested: 1 µg/ml) | no binding (tested: 1 µg/ml) | no binding (tested: 1 µg/ml) | TMEL1008 (antibody, V domains shown, It was detected with an anti-human IgG Fc gamma secondary antibody) VH: QVQLVQSGAEVKKPGSSVKVSCKASGGTFNRDGIIWVRQAPGQGLEWMGRIIPILGIANYAQKFQGRVTIIADKSTSTAYMELSSLRSEDTAVYYCARESEVGRGMDVWGQGTTVTVSS VL: ASALTQPASVSGSPGQSITISCTGTSSDVGDYNYVSWYQQHPGKAPKLMIYDVSNRPSGVSHRFSGSKSGNTASLTISGLQAEDEADYYCSSYTISSTLGVFGPGTKVTVLG
no binding (tested: 1 µg/ml) | no binding (tested: 1 µg/ml) | no binding (tested: 1 µg/ml) | no binding (tested: 1 µg/ml) | TMEL1012 (antibody, V domains shown) VH: PLQLQESGPGLVKPSETLSLTCTVSGDSITTTYYWGWIRQPPGKGLEWIASIYFTGSTFHNPSLKSRVTMSVDTSKNQFSLNLSSVTAADTAVYYCARRVGNWNYVWFDPWGQGTLVSVSS VL: AYVLTQPPSVSVAPGQTARMTCGGNNIGSKSVHWYRQRPGQAPVLVVYDDTDRPSGIPERFSGSNSGNTATLTISRVEAGDEADYYCQVWDTNSDHVVFGGGTKLTVLG
